Data from the supplement of paper PMC10724198.
± gives the standard deviation of the averaged measurements.

What follows are sequences tested on Saccharomyces cerevisiae (assay: protein stability index of tFT-peptide fusion (C-terminal peptide) (PSI (0-1 scale)); higher = more stable (slower turnover)). Conditions: genetic background: das1 deletion; temperature: 30 C.
Procedure: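 MPS profiling in S. cerevisiae of the yeast C-terminome library: the last 12 aa of each annotated ORF are fused to the C-terminus of a sfGFP-mCherry timer, after a GGGS linker. Cells are FACS-sorted into 8 mCherry/sfGFP bins and deep-sequenced. PSI runs from 0 (unstable) to 1 (stable); wild type and das1Δ backgrounds, two technical replicates each.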

Row | Sequence | protein stability index
1 | ASFAKDVISLPE [YER046W-A C-terminal 12 aa] | 0.7202 ± 0.00094
2 | ASRHSSTKKTST [CAB1 C-terminal 12 aa] | 0.6986 ± 0.0058
3 | ATGTKSDRPIWR [SHE1 C-terminal 12 aa] | 0.6627 ± 0.00093
4 | ATRNLNQYWRVL [YAL019W-A C-terminal 12 aa] | 0.68 ± 0.011
5 | AVGETRLKKSKK [PRP21 C-terminal 12 aa] | 0.689 ± 0.016
6 | AVSEELIKMWYD [GCN3 C-terminal 12 aa] | 0.7218 ± 0.0015
7 | AYECAKHFLMTY [MRS3 C-terminal 12 aa] | 0.689 ± 0.033
8 | CFRWLVRNHLLS [YEL045C C-terminal 12 aa] | 0.692 ± 0.0081
9 | CHAYAKKAKEFL [PAM17 C-terminal 12 aa] | 0.694 ± 0.019
10 | CKSHAITNNITM [YER152C C-terminal 12 aa] | 0.711 ± 0.026
11 | CPTPGCTCQCNK [SEA4 C-terminal 12 aa] | 0.69 ± 0.015
12 | CRKGVSHKGVCH [YBL111C C-terminal 12 aa] | 0.721 ± 0.026
13 | CSTFAFAERLQC [YIL021C-A C-terminal 12 aa] | 0.6901 ± 0.003
14 | CYYKTQKSQISN [SIP1 C-terminal 12 aa] | 0.715 ± 0.011
15 | DALHKMDKNVLE [YOL029C C-terminal 12 aa] | 0.696 ± 0.028
16 | DAMEFIAQSHKS [OCT1 C-terminal 12 aa] | 0.694 ± 0.011
17 | DASALIEIQEKC [SST2 C-terminal 12 aa] | 0.669 ± 0.021
18 | DASSTKNTDHIV [MEP2 C-terminal 12 aa] | 0.678 ± 0.014
19 | DDDDDDDDDEAD [RAD6 C-terminal 12 aa] | 0.686 ± 0.015
20 | DDDEMDIEFEDV [TFA1 C-terminal 12 aa] | 0.71135 ± 0.00066
21 | DDEAGALIPENC [SOL4 C-terminal 12 aa] | 0.705 ± 0.03
22 | DDECTYKMAKFK [YNL303W C-terminal 12 aa] | 0.68172 ± 0.00037
23 | DDEEDEEEGQVA [USO1 C-terminal 12 aa] | 0.704 ± 0.013
24 | DEEDEEDVKTEV [CAB3 C-terminal 12 aa] | 0.6848 ± 0.0014
25 | DEELFLLSKSLR [SPC98 C-terminal 12 aa] | 0.724 ± 0.013
26 | DEGRNTSSVVNK [MAL31 C-terminal 12 aa] | 0.688 ± 0.0089
27 | DELTTVLNQLVR [EXO70 C-terminal 12 aa] | 0.6823 ± 0.0024
28 | DEMHYSDEDSSE [RRN11 C-terminal 12 aa] | 0.699 ± 0.073
29 | DEYFNEYNNNSN [TFB1 C-terminal 12 aa] | 0.7196 ± 0.0065
30 | DGIRQVDDFQAQ [PRE1 C-terminal 12 aa] | 0.701 ± 0.012

Same assay, conditions: genetic background: wild type; temperature: 30 C

Row | Sequence | protein stability index
31 | AALESEDEDDEA [CAF20 C-terminal 12 aa] | 0.6667 ± 0.0033
32 | ADDDFDADMELE [CDC16 C-terminal 12 aa] | 0.728 ± 0.028
33 | ADQELFMGIMNA [NMD5 C-terminal 12 aa] | 0.677 ± 0.0097
34 | AERAGNAGVKAE [SND3 C-terminal 12 aa] | 0.685 ± 0.017
35 | AFTAKWKAENKQ [FYV4 C-terminal 12 aa] | 0.6671 ± 0.0054
36 | AGAAAVANQGKK [GPM1 C-terminal 12 aa] | 0.715 ± 0.064
37 | AIAEIKKSLAFA [SDH2 C-terminal 12 aa] | 0.688 ± 0.086
38 | AIRRENEWAEDR [SKP1 C-terminal 12 aa] | 0.709 ± 0.0089
39 | AKDIKGYGTQKI [PRE4 C-terminal 12 aa] | 0.695 ± 0.022
40 | AKISDKENKAFL [MRPL15 C-terminal 12 aa] | 0.678 ± 0.025
41 | AKPALFERFINA [MCD1 C-terminal 12 aa] | 0.665 ± 0.011
42 | AKTSLYTATVIS [PAC11 C-terminal 12 aa] | 0.6331 ± 0.006
43 | ALNQVLGVPGAM [SSH1 C-terminal 12 aa] | 0.671 ± 0.031
44 | ALVDQLIAKYSS [ACB1 C-terminal 12 aa] | 0.663 ± 0.042
45 | ANARLESESKDP [UNG1 C-terminal 12 aa] | 0.667 ± 0.033
46 | ANGTSPGVHVRE [IRC15 C-terminal 12 aa] | 0.678 ± 0.017
47 | ARGAGGFGSTGN [DUT1 C-terminal 12 aa] | 0.7208 ± 0.0062
48 | ARRTFTGRKIVY [ARC35 C-terminal 12 aa] | 0.7288 ± 0.0052
49 | ASEKEKSECVVM [MIY2 C-terminal 12 aa] | 0.745 ± 0.0097
50 | ASFAKDVISLPE [YER046W-A C-terminal 12 aa] | 0.699 ± 0.079
51 | ASRHSSTKKTST [CAB1 C-terminal 12 aa] | 0.692 ± 0.054
52 | ATGTKSDRPIWR [SHE1 C-terminal 12 aa] | 0.72 ± 0.034
53 | ATRNLNQYWRVL [YAL019W-A C-terminal 12 aa] | 0.58 ± 0.023
54 | AVGETRLKKSKK [PRP21 C-terminal 12 aa] | 0.779 ± 0.12
55 | AVSEELIKMWYD [GCN3 C-terminal 12 aa] | 0.736 ± 0.037

Row | Sequence | protein stability index
56 | AYECAKHFLMTY [MRS3 C-terminal 12 aa] | 0.653 ± 0.057
57 | CFRWLVRNHLLS [YEL045C C-terminal 12 aa] | 0.187 ± 0.0022
58 | CHAYAKKAKEFL [PAM17 C-terminal 12 aa] | 0.7 ± 0.047
59 | CKSHAITNNITM [YER152C C-terminal 12 aa] | 0.687 ± 0.0091
60 | CPTPGCTCQCNK [SEA4 C-terminal 12 aa] | 0.659 ± 0.0093
61 | CRKGVSHKGVCH [YBL111C C-terminal 12 aa] | 0.71 ± 0.035
62 | CSTFAFAERLQC [YIL021C-A C-terminal 12 aa] | 0.642 ± 0.029
63 | CYYKTQKSQISN [SIP1 C-terminal 12 aa] | 0.727 ± 0.016
64 | DALHKMDKNVLE [YOL029C C-terminal 12 aa] | 0.728 ± 0.076
65 | DAMEFIAQSHKS [OCT1 C-terminal 12 aa] | 0.719 ± 0.021
66 | DASALIEIQEKC [SST2 C-terminal 12 aa] | 0.695 ± 0.059
67 | DASSTKNTDHIV [MEP2 C-terminal 12 aa] | 0.679 ± 0.068
68 | DDDDDDDDDEAD [RAD6 C-terminal 12 aa] | 0.667 ± 0.0086
69 | DDDEMDIEFEDV [TFA1 C-terminal 12 aa] | 0.739 ± 0.01
70 | DDEAGALIPENC [SOL4 C-terminal 12 aa] | 0.688 ± 0.0086
71 | DDECTYKMAKFK [YNL303W C-terminal 12 aa] | 0.664 ± 0.035
72 | DDEEDEEEGQVA [USO1 C-terminal 12 aa] | 0.66 ± 0.027
73 | DEEDEEDVKTEV [CAB3 C-terminal 12 aa] | 0.664 ± 0.016
74 | DEELFLLSKSLR [SPC98 C-terminal 12 aa] | 0.6784 ± 0.0026
75 | DEGRNTSSVVNK [MAL31 C-terminal 12 aa] | 0.7419 ± 0.0019
76 | DELTTVLNQLVR [EXO70 C-terminal 12 aa] | 0.66 ± 0.011
77 | DEMHYSDEDSSE [RRN11 C-terminal 12 aa] | 0.709 ± 0.028
78 | DEYFNEYNNNSN [TFB1 C-terminal 12 aa] | 0.675 ± 0.013
79 | DGIRQVDDFQAQ [PRE1 C-terminal 12 aa] | 0.658 ± 0.0071
